The test system of assay [1] is nuclear MEF2. The assay can be described thus: MEF2 luciferase reporter assay. The conditions noted are these: co-transfected with MEF2 luciferase reporter. The class given is cell-based. An excerpt: Control indicates the group co-tranfected with control vector.
MEF2 luciferase reporter assay was done as described Wang et al., J Biol Chem, 2005, 280:16705-16713. Briefly, cells were transiently transfected with various constructs with MEF2 luciferase reporter plasmid (WT, reporter with wild type MEF2 DNA binding sites; mt, reporter with the MEF2 DNA binding sites mutated) using Lipofectimane 2000 (Invitrogen) following procedures provided by the manufacturer. A β-galactosidase expression plasmid was used to determine the efficiency in each transfection. The total amount of DNA for each transfection was kept constant by using control vectors. Cell lysates were analyzed for luciferase and β-galactosidase activity according to the manufacturer's instructions (Roche, cat. no. 11669893001).
For orientation: In a reporter assay the amount or activity of a reporter protein is the signal.

In assay [2] the test system is SN4741 cells. The assay can be described thus: PI (propidium iodide) staining of cell death. The conditions noted are these: SN4741 cells infected with lentivirus 24 hours, then MPP+ 5 μM for 24 hours. In kind it is cell-based, mouse. Here is the method:
(A) SN4741 cells were infected with lentiviruses for 24 hours and followed by exposure to MPP+ (5 μM) for 24 hours. Cell death was analyzed by PI (propidium iodide) staining (n=4; scale bar, 30 μm). The control indicated the control vector. (B) Quantification of the number of PI positive cells in (A) (n=50 cells, **P<0.01). Experiments were repeated four times. Control indicates the group transfected with the control vector.

Assay [3] has as its system MEF2D binding to ND6. The assay can be described thus: ChIP assay of MEF2D binding to the ND6 MEF2 site in purified mitochondria. The class given is cell-based, mouse. The conditions noted are these: construct over-expressed in SN4741 cells. An excerpt: (A) Mitochondria-targeting MEF2D (Mt2D) and mitochondria-targeting dominant-negative MEF2D (Mt2Ddn), which lacks the transactivation domain (TAD). […] Control indicates the control vector group. (C) Effects of Mt2D or Mt2Ddn on ND6 expression in SN4741 cells. Over-expression of Mt2Ddn in SN4741 cells reduced ND6 but not PPAR-γ coactivator 1 (PGC1) expression by western blotting (n=4, **p<0.01). Control indicates the control vector group. (D) Effects of over-expression of Mt2D or Mt2Ddn on mRNA levels of mitochondria encoded genes. […] Control indicates the control vector group. (E) Effects of Mt2D or Mt2Ddn on mtDNA L-strand transcription initiation in vitro (n=3; **P<0.01). A human mtDNA fragment containing mitochondrial L-strand promoter (LSP) and ND6 gene was used in the in vitro transcription assay. […] (F) Effects of Mt2D or Mt2Ddn on mtDNA de novo transcription in vivo (n=3; **P<0.01). Control (−) is without primers. Control (+) indicates the control vector group.
(A) Reduced binding of MEF2D to ND6 after neurotoxin treatment. SN4741 cells were treated with MPP+ (25 μM) or rotenone (Rot, 100 nM) for 12 hours. […] Control indicates untreated. […] Control indicates untreated. (C) Immunocytochemical analysis of mitochondrial MEF2D after MPP+ and rotenone treatment. SN4741 cells treated as described in (A) were stained (scale bar, 10 μm). […] Experiments were repeated four times. Control indicates untreated. […] SN4741 cells were treated with MPP+ after infection with the control, Mt2Ddn or Mt2DVP16 or MtND6 lentiviruses for 24 hours (upper graph: different doses of MPP+ for 24 hours; lower graph: 5 μM of MPP+ for different times). Cell viability was measured by WST-1 assay (n=4; *p<0.05; **P<0.01). Control indicates the control vector group.
Andres et al., J Biol Chem, 1995, 270:23246-23249. Moreover, this putative MEF2 binding site is conserved among several species. To test whether MEF2D binds to this putative MEF2 site, electronic mobility shift assay (EMSA) was performed. N-terminal MEF2D formed a complex with the labeled probe containing the ND6 MEF2 site. […] To corroborate this finding, a chromatin immunoprecipitation (ChIP) assay was carried out using highly purified mitochondria. […] ND6 but not ND2 based primers could amplify the bound sequence (FIG. 3C). Sequence analysis of the DNA bound by MEF2D after amplification confirmed the presence of the ND6 MEF2 site (FIG. 3D).

Assay [4] concerns SN4741 cells. The assay can be described thus: Mitochondrial functional assays (ATP, H2O2, membrane potential). The class given is cell-based, mouse. As to conditions: over-expression in SN4741 cells. The text has this:
(A) Requirement of mitochondrial MEF2D for complex I activity. […] Control indicates the control vector group. (B) Over-expression of ND6 rescued complex I activity reduced by Mt2Ddn. Control indicates the control vector group. (C) Measurement of various complex activities. […] Control indicates the control vector group. (D) Effects of over-expression of Mt2D or Mt2Ddn on mitochondrial function. Mt2Ddn reduced cellular ATP level and elevated H2O2 production in SN4741 cells (n=4; *p<0.05; **P<0.01). Control indicates the control vector group.
Mitochondrial complex I activity was evaluated initially by blue native-polyacrylamide gel electrophoresis (BN-PAGE) and in-gel activity staining. This assay measures total complex I activity. Rotenone sensitive complex I activity and activities of other mitochondrial complexes were further measured by methods described by Antoni et al., J Biol Chem, 1998, 273:14210-14217. Briefly, parallel assays were performed to measure complex I activity at 340 nm using 2,3-dimethoxy-5-methyl-6-n-decyl-1,4-benzoquinone (DB) (50 μM) as acceptor and NADH (0.8 mM) as donor, in 50 mM Tris (pH 8.0) buffer supplemented with 5 mg/ml BSA either without or with the addition of 4 μM rotenone, which gave total and rotenone insensitive complex I activities, respectively. The difference in value between the two provided a quantified measure of the rotenone-sensitive activity. Mitochondrial membrane potential was detected using a kit (cat. no. 280002) from Stratagene following the procedures provided by the manufacturer. The fluorescent dye JC-1 (5,5′,6,6′-tetrachloro-1,1′,3,3′-tetraethylbenzimidazolyl carbocyanine iodide) stains mitochondria red in a membrane potential dependent manner. Briefly, cells were seeded in 96-well plates at 4×10^4 cells/well with 100 μl culture medium and incubated at 33° C. with 5% CO2. After treatment, 10 μl/well of premixed JC-1 staining solution was added, and the cells were incubated for an additional 30 min under the same conditions. After thorough washes, 100 μl assay buffer was added to each well. Fluorescence signal was detected with excitation and emission at 520 nm and 590 nm, respectively, on a multi-well plate reader (Bio-Tek). Cellular ATP and H202 were measured by Bioluminescent Somatic Cell ATP Assay Kit (Sigma) and Hydrogen Peroxide Assay Kit (Cayman), respectively.

B1: Mt2Ddn: Mitochondria-targeting dominant-negative MEF2D: mouse MEF2D 1-131aa with mitochondria-targeting signal, lacks the transactivation domain (protein, UniProt Q63943 1-131, looked up, fragment)
chain: MGRKKIQIQRITDERNRQVTFTKRKFGLMKKAYELSVLCDCEIALIIFNHSNKLFQYASTDMDKVLLKYTEYNEPHESRTNADIIETLRKKGFNGCDSPEPDGEDSLEQSPLLEDKYRRASEELDGLFRRY
modifications: mitochondria-targeting signal added
As for B1, the “nuclear MEF2 activity (MEF2 reporter)” value in assay [1] is recorded as “did not affect”. Moreover, the “number of propidium iodide (PI) positive cells” value in assay [2] is “increases”. Moreover, the “binding of full length MEF2D to the ND6 MEF2 site” value in assay [3] is on record as “modulated”. In addition, in assay [4], the “cellular ATP level” value is given as “clear reduction” and the “hydrogen peroxide production by mitochondria” value is “significantly increased”. Further, in assay [4] (JC-1), the mitochondrial membrane potential entry is listed as “did not significantly alter”.

The values are drawn from patent publication US20120149645A1, “COMPOSITIONS AND MODULATION OF MYOCYTE ENHANCER FACTOR 2 (MEF2)” (EMORY UNIVERSITY, priority 2010, published 2012).
